In data set [1] the test system is TePif1 (Thermotoga elfii (Pseudothermotoga elfii)). The experiment in a line: EMSA. (In general: In EMSA bound probe runs differently from free probe, usually more slowly.)
Data set [2] concerns TePif1-4x (Thermotoga elfii (Pseudothermotoga elfii)). The experiment in a line: EMSA.

For the substance 3' tail, in data set [1], the binding signal was greater than 20 % bound.

Turning to 5' tail, the equilibrium dissociation constant (Kd) in data set [1] was 4.53 nM.

In turn, Fork registered a Kd in data set [1] of 4.4 nM.

As to “TTTTTTTTTTTTTTTTTTTTTTTTTTTTTTTTTTTTTTTTTTTTTTTTTT [poly(dT) 50mer]”, in data set [2], the binding signal amounted to 5 % bound.

In data set [1], ssDNA 45-nt showed a Kd of 0.93 nM.

A word on the Kd: it is the equilibrium constant for the complex coming apart. A low value points to higher affinity.

(Values after doi:10.1101/163188.)
